Numbering of substitutions follows the chain as printed.
Columns and labels:
Conditions in all cases: EMSA: 10 mM Tris-HCl pH 7.5, 1 mM EDTA, 50 mM NaCl, 5% glycerol, 30 min room temperature, 10 pmol DNA, 0-18 ug protein, 5% native PAGE at 4 °C; BLI: PBS pH …
[1] = test system: SigB (Staphylococcus aureus (strain of the cloned gene not stated; Newman or XQ?)); assay: BLI
[2] = test system: SigB(Q225P) (Staphylococcus aureus (strain of the cloned gene not stated; XQW or Newman-SigB(Q225P)?)); assay: BLI
[3] = test system: T1, SigB (Staphylococcus aureus (strain of the cloned gene not stated; Newman or XQ?)), ORF:92324cdd; assay: EMSA
T1 sequence: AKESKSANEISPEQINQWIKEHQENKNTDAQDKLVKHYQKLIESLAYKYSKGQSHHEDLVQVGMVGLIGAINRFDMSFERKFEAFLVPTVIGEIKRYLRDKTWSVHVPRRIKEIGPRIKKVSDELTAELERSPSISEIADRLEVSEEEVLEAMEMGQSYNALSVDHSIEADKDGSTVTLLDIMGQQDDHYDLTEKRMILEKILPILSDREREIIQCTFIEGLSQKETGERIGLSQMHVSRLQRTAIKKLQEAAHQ

[4] = test system: T2, SigB(Q225P) Q224P (Staphylococcus aureus (strain of the cloned gene not stated; XQW or Newman-SigB(Q225P)?)), ORF:92324cdd; assay: EMSA
T2 sequence: T1 sequence with Q224P

Substance	Kd [1]	Kd [2]	binding [3]	binding [4]
biotin-labeled nuc promoter (BLI)	113 nM	273 nM		
ACGCATAGGGACTTCGTGACCATTTACAGTCACAACTTTACTTAAGTTAATAAGTGTTAATTCATCAAACGACAGTTGTTCAACTGGTTGATGATGGTATTTCTTCATTCTTGTAAGTAAATTATTAATACGTAAAACGAGTTCCCTTGGACTAAATGGTTTTTTGACATAGTCATCTGCACCTAAAGTTAAGGCG (double strand) [saeR coding region fragment]			no binding	no binding
